# Measurements taken from paper PMC9714796, “Macrophage TGF-β signaling is critical for wound healing with heterotopic ossification after trauma” (JCI Insight, 2022).
# B1: TGF-βRII-Fc (muTGFbRII-mFc) (Fc fusion, UniProt Q62312 24-166, looked up)
# chain: IPPHVPKSVNSDVMASDNGGAVKLPQLCKFCDVRLSTCDNQKSCMSNCSITAICEKPHEVCVAVWRKNDKNITLETVCHDPKLTYHGFTLEDAASPKCVMKEKKRAGETFFMCACNMEECNDYIIFSEEYTTSSPDLLLVIIQ
# B2: Transforming growth factor-β3 (TGF-β3) (ligand, UniProt P10600 301-412, looked up)
# chain: ALDTNYCFRNLEENCCVRPLYIDFRQDLGWKWVHEPKGYYANFCSGPCPYLRSADTTHSTVLGLYNTLNPEASASPCCVPQDLEPLTILYYVGRTPKVEQLSNMVVKSCKCS
# notes: TGF-β3 ligand used as SPR analyte
# Key:
# [1] = target: Transforming growth factor-β1 (TGF-β1) (UniProt P01137 279-390); experiment: cell-based or functional assay
# [2] = target: B2; experiment: cell-based or functional assay
# [3] = target: B1; experiment: SPR; Biacore T100; TGF-βRII-Fc captured (~50 RU) by an anti-mouse Fc antibody amine-coupled to a CM5 chip; ligand injected at 0.013-10 nM (0.013-1.1 nM used for the fit); HBS-EP with 350 mM NaCl and 0.5 mg/mL BSA; 1:1 model with mass transport, KD = kd/ka; conditions: both partners purified
# Transforming growth factor-β1 (TGF-β1), sequence (P01137 279-390): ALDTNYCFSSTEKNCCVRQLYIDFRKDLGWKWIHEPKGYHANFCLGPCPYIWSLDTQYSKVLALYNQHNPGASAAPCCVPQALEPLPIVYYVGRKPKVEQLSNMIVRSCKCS
IC50 of TGF-βRII-Fc against TGF-β1 (640 pg/mL) signalling in A549 cells with the (CAGA)12 luciferase reporter [1],IC50 of TGF-βRII-Fc against TGF-β3 (270 pg/mL) signalling in A549 cells with the (CAGA)12 luciferase reporter [2],Kd [3],Binder
0.0229 nM,0.00446 nM,,B1
,,0.0112 nM,B2
